According to the nanobody polyreactivity screen of Harvey et al. (2022):

Assay: yeast display, Sf9 membrane polyspecificity reagent, FACS + sequencing; frameworks hold sequencing errors
Procedure, shortened: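 Galactose induction of a Saccharomyces cerevisiae BJ5465 synthetic nanobody display library ran 36–48 hours. The cells were then stained for 1 hour at 4 °C with 10% biotinylated, detergent-solubilized Sf9 membrane reagent, pulled down on streptavidin microbeads and FACS-sorted into low and high (top ~1%) gates on expression and reagent-binding fluorescence. Labels for polyreactivity follow the gate of origin.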

## QVQLVESGGGLVQAGGSLRLSCAASGGIFKYNAMGWYRQAPGKERELVAAIDTSGGSTYYADSVKGRFTISRDNAKNTVYLQMNSLKPEDTAVYYCAAELGLAQYYYWGQGTQVTVSS
  polyreactivity (PSR sort gate): low polyreactivity

## QVQLVESGGGLVQAGGCLRLSGAASVYTYRKYAMGWSRQAPGNERELVAAISASGGSTYYADSVKGRFTISRDKAKNTVYLPMNSLKPEDTAVYYCAKVPVTVYSRPFDYWGQGTQVTVSS
  polyreactivity (PSR sort gate): high polyreactivity

## QVQLVESGGGLVQAGGSLRLRCAASGIIQQSYALGWSRQAPGKERELVAAIRGSDGSTYYADSVKGRFTISRDNAKNTVYLQMNSLKPEDTAVYYCNADTRTWPLDYWGQGTQVTVSS
  polyreactivity (PSR sort gate): low polyreactivity

## QVQLLESGGGLVQAGGSLRLSCASSGYTIIQYAMGWYRQAPGKERELVAGNTWSGGSTYADSVKGRFTISRDNAKNTVYLQMKSLKQEDTAVYYCAADQEPGKYRFPYARKNNYWGQGTQVTVSS
  polyreactivity (PSR sort gate): low polyreactivity

## QVQLGESGGGLVQAGGSLRLRCAASGYIITYNAMGWYRQAPGKERELVAAISSGGSTNYADSVKGRFTISRDNAKITVYLQMNSLKPEDTAVFYCAAPVWTYDDYWGQGSQVTVSS
  polyreactivity (PSR sort gate): low polyreactivity

## QVQLVESGGGLVQAAGSLRLSCAASGRTFGQYVMGGSRQAPGKERELVAAISGIGGSTYYADSVKGRFTISRDNAKNTVYLQMNSLIPDDTAVYYCAVELYWYPGYDYWGQGTQVTVSS
  polyreactivity (PSR sort gate): low polyreactivity

## QVQLVESGGGLVQAGGSLRLSCAASGRIFYDYAMGWYRQAPGKERELVAAISGSGGSTYYADSVKGRFTISRDNAKNTVYLQMNSLKPEDTAVYYCNRYTTRYYPGGDYWGQGTQVTVSS
  polyreactivity (PSR sort gate): high polyreactivity

## QVQLVESGGVLVQAGGSLRLSCAASGITFPDYDMGWYIHATGKERELVAAITYRSGSTYYADSVKGRFTISRDNAKNTVFLQMNCLKREDTAVYYCAADWRTKGYDSLGQGTQVTVSS
  polyreactivity (PSR sort gate): high polyreactivity

## QVQLVESGGGLVQAGGSLRVSCAASGFTFYGYAMGWSRQAPGKEREVVAAISWSGGSTYYADSVKGRFTISRDNAKNTVYLLMNRLKAEDTAVYYCAKKWTAPGKGYPRSPGGYGYWGQGTQVTVSS
  polyreactivity (PSR sort gate): high polyreactivity

## QVQLVESGGGLVQAGGSLRLSCAASGRTFSNNVMGWYRQAPGKERELVAAISGRGGRTYYADSVKGRFTISRDNAKNTVYLQMNSLKPEDTAVYYCAAGAYWPDEYWGQGTQVSVSS
  polyreactivity (PSR sort gate): high polyreactivity

## QVQLVESGGGLVQAGGSLRLSCAASGRILPYYAMGWYRQEPGKERELVAAITGGGGSTYYADSVKGRFTISRDNAKNTVYLQMNSLKPEDTAVYYCAKPRGRASLALYRFSLYYYWGQGTQVTVSS
  polyreactivity (PSR sort gate): high polyreactivity

## QVHLVESGGGLVQAGGSLRLSCAASGFIFIRYAMGWYRQAPGKERELVAAINGGGSSTYYADSVKGRFTISRDNAKYTVYLQMNSLKPEDTAVDYCDADTDSWWYYLYYGDGFDYWGQGTQVTVSS
  polyreactivity (PSR sort gate): high polyreactivity

## QVQLVESGGGLLQAGCSLRISCAASGFIFYKYVMGWYRPAPGKERELVAAINWSGGSTYYADSVKGRFTISRDNAKNTVYLQMNSLKQEDTAVYYCNAARRSKGGLNDYYWGQGTQVTVSS
  polyreactivity (PSR sort gate): high polyreactivity

## QVQLVESGGGLVQAGGSLRLSCAASGRIFGVYAMGWYRQAPGKEREFVASITRGGGRTYYADSVKGRFTISRDNAKNTVYLQMNSLKPEDTAVYYCNAVVNSYPYYYWGQGTQVTVSS
  polyreactivity (PSR sort gate): high polyreactivity

## QVQLVESGGGLDQAGGSLRLSCAASGRIFVIIAMGWYRQAPGKERELVAAISWTGDTTYYADSVKGRFTISRDNAKNTVYLQMNSLKPEDTAVYYCAAEGYYIQSRTYSSDRYDYWGQGTQVTVSS
  polyreactivity (PSR sort gate): low polyreactivity

## QVQHVESGGGLVQEGGSLRVSCAASGSIFGTNDMGWYRQAPGKERELVAAISSSGASTYYADSVKGRFTISRDNAKNTVYLQMNSLKPEDTAVYYCARGYTYQYSSFYYWGQGTQVTVSS
  polyreactivity (PSR sort gate): low polyreactivity

## QVQLVESGGGLVQAGGSLRLSCAASGITFRRYTMGWYRQAPGKERELVATISLSDGNTYYADSVKGRFTISRDNAKNTVYLQMNSLKPEDTAVYYCNALHTWHQTYYYWGQGTQVTVSS
  polyreactivity (PSR sort gate): low polyreactivity

## QVQLVESGGGLVEAGGSLRLSCAASGFIFSSYVMGWYRQAPGKERELVAAITSGNSTYYADSVKGRFTISRDNAKTTVYLQMNSLKPEDTAVSYCTADSYHTYYYWYDYWGQGTQVTVSS
  polyreactivity (PSR sort gate): low polyreactivity

## QVQLVETGGGLVQAGGSLRLSCAASGSIFVTNAMGWYRQPPGKEREFVAAISSSDDSTYYADSVKGRFTISRDNAKNTVYLQMHSLKPEDTAVYYCASDWLFNIIAYDYGLDSWGQGTQVTVSS
  polyreactivity (PSR sort gate): low polyreactivity

## QVQLVESGGGLVQAGGSLRLSCAASGRIFYFNAMGWYRQAPGKERELVAAISGSGGDTYYADTVKGRFTISRDNAKNTVYLQMNCLKPEDTAVYYCAAEVYTWGQGTQVTVSS
  polyreactivity (PSR sort gate): low polyreactivity

## QVQLVESGGGLVQAGGSLRLSCAASGNIFTGYMGWYRQAPGKERELVAAISRSGGRTHYADSVKGRFTISRDNAKNTVYLQMNSLKPEDTAVYYCNADVRRYTAFTKDAYAFNYWGQGTQVTVSS
  polyreactivity (PSR sort gate): high polyreactivity

## QVQLVESGGGLVQEGGSLRIICAASGFIFYYYAMGWYRQAPGKERELVAGISRRGGSTYYADSVKGRFTISRDNAKNTVYLQMNSLKPEDTAVYYCAALGDDATSYGYWGQGTQVTVSS
  polyreactivity (PSR sort gate): high polyreactivity

## QVQLVESGGGLVQAGGSLRLSCAASGSTFVRYVMGWYRQAPGKQRELVAAISRRGGSTYYADSVEGRFTISRDNAKNTVYLQMNSLKPEDTAVYYCAARGTSRKYYYWGQGTQVTVSS
  polyreactivity (PSR sort gate): high polyreactivity

## QVQLVESGGGLVQAGGSLRLSCAASGFIFKKYVMGWYRQAPGKERELVAGSSRSGGSTYYADSVKGRFTISRDNAKNTVYVQMNSLKPEDTAVYYCAAYIYQSPTRGGGYWGQGTQVSVSS
  polyreactivity (PSR sort gate): high polyreactivity

## QVQLVESGGGLVQAGGSLRLSCAASGFTFEENDMGWYRQAPGKETELVAAINWSGGNTYYADSVKGRFTISRDNAKNTVYLQMNSLKPEDTAVYYCAADSPRYYYWVGPYYGYDYWGQGTQVTVSS
  polyreactivity (PSR sort gate): high polyreactivity

## QVQLVESGGGLVQAGGSLSLSCPASGRTFSTNAMGWYRQAPGKEREMVAAISARGGSTYYADSVKGRFTISRDNAKNTVYLQMNSLKPEDTAVEYCALRPGRYSYAFDFWGQGTQVTVSS
  polyreactivity (PSR sort gate): high polyreactivity

## QVQLVESRGGLVQAGGSLRLSCAASGFIFGFYALGWYRQEPGTEMELVAAITWDGGSTYYADSVKGRFTISRDNAKNTVYLQMNSLKPEDTAVYYCAAYFQYQDVDYDYWGQGTQVTVSS
  polyreactivity (PSR sort gate): high polyreactivity

## QVQLVESGGGLVQAGGSLRLSCAASGSTFRWYDMGGYRQAPGKEREFVAAITSSGGSTYYADSVKGRFTISRDNAKNTVYLQMNSLKPEYNAVYYCNRRYQPYSYDYWGQGTQVTVSS
  polyreactivity (PSR sort gate): high polyreactivity

## QVQLHESGGGLCRRAAASSGAASGTISFLYYMGWYRQAPGQEREFVAGINNGTTTNYADSVKGRFTNSRDNAKNTVYLQMNSLKPEDTAVYYCAVRKPYKATTASGFEYWGQGTQVTVSS
  polyreactivity (PSR sort gate): high polyreactivity

## QLQLGESGGGLVQAGGSLRLSCAASGSTFIVYAMGWYRQAPGKVRELVAAISSDGSTYYADSVKGRFTISRDNAKNTVYLQMNRLKPEYTAVYYCAAYVYDADTGYDYWGQGTQVTVSS
  polyreactivity (PSR sort gate): low polyreactivity

## QVQLVESGGGLVQAGGSLRLSCAASGSTFSGNAMGWYRQAPGKERELVAAITSGGSTNYADSVKGRFTISRDNAKNTVYLDMNSLKPEDTAVYYCAKRYGYRRYYTASDYWGQGTQVTVSS
  polyreactivity (PSR sort gate): low polyreactivity

## QVQLVESGGGLVQAGGRLRLSCAASGRIFSKNAMGWYRQAPGKERELVAVISARGGNTYYADSVKGRFTISRDNAKNTVYLQMNSLKPEDTAVYYCNTPRPYEITTREYYYWGQGTQVTVSS
  polyreactivity (PSR sort gate): high polyreactivity
